Laboratory results from the nanobody polyreactivity screen of Harvey et al. (2022).

Assay: yeast display, Sf9 membrane polyspecificity reagent, FACS + sequencing; frameworks hold sequencing errors
How it was run: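 Galactose-induced (36–48 hours) yeast carrying a synthetic nanobody display library were exposed to 10% biotinylated, detergent-solubilized Sf9 membrane reagent at 4 °C for 1 hour. FACS followed streptavidin microbead enrichment, using low and high (top ~1%) gates for expression (anti-HA) and reagent binding (streptavidin). Colony PCR, MiSeq 2 × 250 sequencing and CDR-length filtering followed. Labels for polyreactivity reflect the gate of origin.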

Row | Sequence | polyreactivity (PSR sort gate)
1 | QVQLVESGGGLVQAGGSLRLSCAASGRTFRYNAMGWYRQAPGKERELVAAITWSGGSTYYADSVKGRFTISRDNAKNTVYLQMNSLKPEDTAVYYCNKVTWHQGHDYWGQGTQVTVSS | low polyreactivity
2 | QVQLVESGGGLVQAGGSLRLSCAASGSIFGYNAMGWYRQAPGKETELVAVITRSDGSTYYADSVKGRFTISRDNAKNTVYLQMNSLKPVDTAVYYCNAETHVYYWGVVIYEYNYWGQGTQVTVSS | low polyreactivity
3 | QVQLVESGGGLVQAGGSLRLSCAASGITFNSYAMGWYRQAPGKERELVAAISWSGGSTYYADSVKGRFTISRDNAKNTVYLQMNSLKPEDTAVYYCNAEYRYYQKTPGRYTNVEYDYWGQGTQVTVSS | low polyreactivity
4 | QVQLLESGGGLVQAGGSLRLSCAASGSTFDWYVMGWYRQAPGKERELVAAINQGSGSTYYADSVKGRFTISRDNAKNTVYLQMNSLKPEDTAVYYCAADRYGAGYLYWPYDYWGQGTQVTVSS | low polyreactivity
5 | QVQLVESGGGLVQAGGSLRLTCAASGSIFDYYAMGWYRQAPGKEWELVAAISNGGTTNYADSVKGRFTLSRDNAKNTVYLQMNRLKPEDTAVYYCNADSALYDKAVIYSEYDYWGQGTQVTVSS | low polyreactivity
6 | QVQLEESGGGLVQAGGSLRLSFAASGYTFDPYDMGWYRQAPGKERELVASISWSGGDTYYADSVKGRFTISRDNAKNTVYLQMNSLKPEDTAVYYCAADRYIPRSIIMDYWGQGNQVTVSS | low polyreactivity
7 | QVQLVESGGGLVQAGGSLRLSCAASGRIFTHNAMGWYRQAPGKERELVAAITSGGRTTYADSVKGRFTISRDNAKNTVYLQRNSLKPEDTAVYYCNADTGLGSLDFDKRDYWGQGTQVTVSS | low polyreactivity
8 | QVQLVESGGGLVQAGGSLRLSCAASGSTFYGYTMGWYRQAPGKERELVAAISSSGSSTYYADSVKGRFTISRDNAKNTVYLQMNSLKPVDTAVYYCAAATRVPGHGSTSYYYWGQGTQVTVSS | high polyreactivity
9 | QVQLVESGGGLVQAGGSLRLSCAASRSTFYRYTMGWYIQAPGKERELVADITGSGGRTYYADSVKGRFTISRDNAKNTVYLQMNSLIPEDTAVYYCNAAYVWYRARAGSEDYWGQGTQVTVSS | high polyreactivity
10 | QVQLQESGGGLVQAVGSLRLSCAASGNISDYYDMGWYRQAPGKERKIVAGIDFGAITNYADSVKGRFTISRDNAKNTEYLQMSSLKPEDTAVYYCAAGVYDWYAYDYWGQGTQVTVSS | high polyreactivity
11 | QVQLVESGGGLVQAGGSLRLTCASSGITFGSYAMGWYTQAPGKERELVAAITWRGGSTFYADSVKGRFTISRDNAKITVYLQMNSLKPEDTAVYYCAATLTKYLPRYYWGHGTQVTVSS | low polyreactivity
12 | QVQLVESGGGLVQAGGSLRLSCAASGRTFKIYAMGWYRQAPGKERELVAAIRRSGGNTYYADSVKGRFTISRDNAKNTVYLQMNSLKPEDTAVYYCATRGYPGGYQRSQSMYYWGQGTQVTVSS | high polyreactivity
13 | QVQLVESRGGLVQAGGSLRLSCAASGFIFSSYAMGWYRQAHGKERELVAAITSGGSTNYADSVKGRFTISRDNAKNTVYLQMNSLKPEDTAVYYCATVPGGSWFFHWWSTGGDDEYWGQGTQVTVSS | low polyreactivity
14 | QVHLVESGGGLVQAGGSLRLTCAASGSIFRFYTMGWYRPATGKERELVATISRGGSTNYADSVKGRFTISRDNAKNSVSLQMNSLKPEVTGVYYCNFGALYSTYWGYGYDYWGQGTQVTVSS | high polyreactivity
15 | QGQLVESGGGLVQAGGSLRLSCAASGYIFNPNAMGWYRQGPGKERDLFAGITWRGDRTYYADSVKGRFTISRDNAKNTVYLQMNCLKPEDTAVYYCNGAGADRWSYSSNIRRYYYWGHGTQVTVSS | high polyreactivity
16 | QVQLVESGGCLVQAGGSLRLSCAASGSIFLSNAMGWYRQAPGKERELVATIDDNGGSTYYADSVKGRFTISRDNAKNTVYLQMNSLKPEDTAVYYCAKQVRVWDLYYYLEEGYWGQGTQVTVSS | low polyreactivity

Row | Sequence | polyreactivity (PSR sort gate)
17 | QVQLVESGGGLVHAGGSLRLSCDASGSIFDGYGMGWYRQAPGKERELVASITWNDGSTYYADSVKGRFTISRDNAKNTVYLQMNSLKPEDTAVYYCAADQWGYEYDYWGQGTQVTVSS | low polyreactivity
18 | QVQLVESGGGLVQAGGSLRLTCAASGRTFSVNAMGWYRQAPGKERELVASINWSGGSTYYADSVKGRFTISRDNAKNTVYLQMNSLKPEDTAVYYCAADHSYWDWWSYYYWGQGTQVTVSS | low polyreactivity
19 | QVQLVESGGGLVQAGGSLRLSCAASGSIFATYAMGWYRQAPGKERELVAAITSSDGSTNYADSVKGRFTISRDNAKNTVDLQMNRLKPEDTAVYYCATDAPDRTDSDSGFDAGYDYWGQGTQVTLSS | low polyreactivity
20 | QVQLVASGGGLLQAGGSLRLSCAASGSIVGLYAMGWYRQAPGNETELVAAISWSAGRTYYADTVKGRFTISRDNAKNTVYLQMNSLIPEETAVYYCNAPYLHYVFVFTDYSQRYDYWGQGTQVTVSS | high polyreactivity
21 | QVQLVESGGGLVQAGGSLRLSCAASGFTFDSYAMGWYRQAPGKERELVAAITWDGGSTYYADSVKGRFTISRDNAKNTVYLPMNSLKPEDTAVYYCAAVSGFYDQYDYWGQGTQVTVSS | low polyreactivity
22 | QVQLVESGGGLVQAGGSLRLSCAASGSIFLTNAMGWYRQAPGKERELVAAIRSGGSTSYADSVKGRFTISRDNAKNTVYLQMNSLKPEDTAVYYCNAESDYRNYKVHPSGIYEYWGQGTQVTVSS | low polyreactivity
23 | QVQLVESGGVLVQAGARLRLSSAASRFTLALNTMGCYIQAPVKERELVAAISWSGGSTFADSVKGRFTISRDNAKNTFYLQMNSLKPEDTAVYYCAAPLHVAGGYSRDFGSWGQGTQVTVSS | low polyreactivity
24 | QVQLVESGGGLVQAGGSLRLSCAASGLILYYYDMGWYRQAPGKERELVAAISWNGDDTYYADSVKGRFTISRDNAKNTVYLQMNSLKPEDTAVYYCAAEGPPQTDDYWGQGTQVTVSS | high polyreactivity
25 | QVQLVESGGCLVQAGGSLRLSCAASGSTFGYNTMGWYRQAPGKERELDAAITGTGRTNYADSVKGRFTISRDNAKNNVYLQMYSLKPEDTAVYYCNARQAGTRYKYGYYGRYYWGHGTQVTVSS | high polyreactivity
26 | QVQLVESGGGLVQAGGSLRLSCAASGSTFTYYAMGWYRQAPGKERELVAAITSGGSTNYADSVKGRFTISRDNAKNTVYLQMNSLKPEDTAVYYCAAEYVRQNYEMDYWGQGTQVTVSS | low polyreactivity
27 | QVQLVESGGGLVQAGGSLSLSCAASGRTFVPYAMGWDRQAPGKERELVAAISRSGSSTYYADSVKGRFTISRDNAKNTVYLQMNSLKPEDTAVYYCAADPVYYYIGDFNYWGQGTQVTVSS | high polyreactivity
28 | QVQLVESGGGLVQAGGSLRLSCAASGRIFTRNAMGWCRPAPGKERELVAAITYTGANTYYADSVKGRFTISRDNAKNTVYLQMNSLKPEDTAVYYCAADGRVKGWGQGTQVTVSS | high polyreactivity
29 | QVQIVESGGGLVQAGVSLRISCAASGSTFADYTMGWYRQAPGKERELVAAISQSGARTYYADSVKGRFTISRDNAKNTVYLQMNSLKPEDTAVYYCAATKAASGPYFRYYYWGQGTQVTVSS | high polyreactivity
30 | QVQLVESGGGLVQAGGSLRLSCAASGLIFPGYDMGWYRAAPGKVRELVAAISDSGANTYYADSVKVRFTISRDNAKNTVYLQMNSLKPEDTAVYYCAADSSWGYGTYFGRFDYWGQGTQVTVSS | low polyreactivity
31 | QVQLVESGGGLVQAGGRLRLSCAASGSTLPANAMGWYRQAPGKERELVSAITITTDGSTYYADSVKGRFTISRDNAKNTVYLQMNSLKPEDTAVYYCAVDRYRYHNRKMGYWGQGTEVTVSS | low polyreactivity
